Assay [1] addresses EGFR on EGFR-positive cells (HT29; HCT116; MDA-MB-453) (human) (UniProt P00533). The assay can be described thus: flow cytometry on HT29 cells, MFI titration fitted in GraphPad Prism. In general terms: In flow cytometry, cells or beads pass a laser one at a time.
The target of assay [2] is CD3 on CD3-positive Jurkat cells (human). Kind of assay: flow cytometry on Jurkat cells, MFI titration fitted in GraphPad Prism.

Turning to “EGFR×CD3 MSBODY M1001 (monovalent unit from Erbitux, single-chain unit anti-CD3 L2K ScFv-Fc) (bispecific antibody)”, the Kd (commonly the constant that tells how readily two partners part at equilibrium) came to 0.65 nM in assay [1] and 8.73 nM in assay [2].

Regarding “EGFR×CD3 MSBODY M1003 (monovalent unit from Vectibix, single-chain unit anti-CD3 L2K ScFv-Fc) (bispecific antibody)”, the Kd in assay [1] was determined as 0.65 nM; in assay [2], 14.4 nM.
